# According to the RNAGym collection of RNA variant scans (doi:10.1073/pnas.2313332121):
# Variants at the floor of the assay were thinned out.
# B1: TPR 5TU (parent)
# chain: GGAUCUUCUCGAUCUAACAAAAAAGACAAAUCUGCCACAAAGCUUGAGAGCAUCUUCGGAUGCAGAGGCGGCAGCCUUCGGUGGCGCGAUAGCGCCAACGUUCUCAACUAUGACACGCAAAACGCGUGCUCCGUUGAAUGGAGUUUAUCAUG
# Variants of: B1
# Assay: polymerase ribozyme fitness, log enrichment relative to wild type (log ratio); higher = more active; in vitro selection for triplet polymerase activity
# Method in brief: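 Each subunit of a heterodimeric triplet polymerase ribozyme was mutagenized into a library by PCR, transcribed, and subjected to one round of in vitro selection, run in triplicate. Libraries were annealed with a biotinylated primer, the partner subunit and triplets, incubated frozen at −7 °C, and extended constructs were gel-excised, captured on streptavidin beads and recovered by RT-PCR. Input and output libraries were sequenced on Illumina, keeping genotypes with ≥10 input reads and ≥1 read per output. Fitness is log base 2 of genotype enrichment divided by wild-type enrichment, from inverse-variance-weighted replicate averages.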
row,Variant,polymerase ribozyme fitness (log ratio)
1,G81C G117C A138G,-4.02
2,G83C G88C,≤ -4.2
3,U82A C95G C118U G126C,-2.5
4,G83C A107C,≤ -4.2
5,G74A G92C,-2.84
6,G81A A106U,-1.09
7,C76G G94U C96G U111A,≤ -4.2
8,U77G A89C U104C,≤ -4.2
9,G81A A91G,-2.82
10,G83C C132U A142U,≤ -4.2
11,G81A C105G A121U,-1.1
12,C76U C93U A97U,-0.802
13,G83U G133C,-2.09
14,C75U G92U,-2.38
15,C75U G92C,-1.11
16,G83U U101A A115U G117U,≤ -4.2
17,G80A C93G C96U,-3.96
18,C76U C116G,0.541
19,C75U G83C,-1.13
20,C76U C87U U102C,-1.82
21,C75G G84A A107U A121U U151C,≤ -4.2
22,U77A G94C A98U,≤ -4.2
23,C75U C85U A119G G143A A147C,-3.76
24,G80A A142U U144C,-3.55

row,Variant,polymerase ribozyme fitness (log ratio)
1,C76U C79A C93U C116A C118A,≤ -4.2
2,C76A A98U G136A U145A,0.194
3,C75U C95U C96U,-0.218
4,G81A U144C,-1.41
5,G81A C87U,-1.73
6,G83U C114G A115U A119U,≤ -4.2
7,G83C A110G,-3.65
8,U77G G84C U148G,≤ -4.2
9,U82G G86U U102G U130G A147U,≤ -4.2
10,G80U C114U,-2.31
11,C76A A107G C123U A142C,-3.65
12,G81U C85U,-0.466
13,G74C A147C,-4.06
14,G80C U90G,≤ -4.2
15,C76U U77G G81U G92A C123A,≤ -4.2
16,U77G G84A,≤ -4.2
17,U82G G84C,-4.06
18,G74C G81C,-3.94
19,C76A U90C U146G,≤ -4.2
20,G80C C93G,-4.2
21,C75U G141C,-1.98
22,C76U C87A A91G A107U G126A U145A,≤ -4.2
23,C76U U144A,-1.08
24,C75G U77G G80C A97U G124A,≤ -4.2

row,Variant,polymerase ribozyme fitness (log ratio)
1,C76A C87U G92A,-2.16
2,C76A C87U G92C,-2.48
3,G83C C105G,-2.69
4,C75G C93A A113U A142G,-4.17
5,G83C A150G,-2.66
6,C76G C85G G92A A120C C129U,≤ -4.2
7,C76U A119C C123U,0.258
8,C75G G92U,-2.52
9,C76U G83U G84U C123U,-2.49
10,U78G G86U,≤ -4.2
11,G83A A115U,-1.25
12,U78A G81A C93G A97U U151C,≤ -4.2
13,G74A C114U,-3.85
14,C79A G84A A120U U127C U144C,≤ -4.2
15,G80U A91G A110G,≤ -4.2
16,U78G U111G A113U,≤ -4.2
17,G83C C95U G126A,-2.05
18,G83A C105U A110G U134C,-3.98
19,C79G C85A A138G U148A,≤ -4.2
20,U82C A115G,-0.965
21,C75A U144G,≤ -4.2
22,G74C C99U A142U U146A,≤ -4.2
23,C76U A137G,-0.882
24,C75G C87A,-3.89

row,Variant,polymerase ribozyme fitness (log ratio)
1,G81U C87A A107G U144G,≤ -4.2
2,C75G A106C C108A,≤ -4.2
3,C76A C85A A121G,-2.03
4,C79A C87G A113G,≤ -4.2
5,G83C G94A A98U C125U,-1.82
6,G83U C129A,-4.02
7,C76U C93U C105U,-0.938
8,G81A A120U G128A,-3.29
9,G81A G86A A97C,-0.925
10,G83C C96A A150C,-3.75
11,G74A G141A,-2.42
12,G83A U151G,-3.97
13,C75U G84U U134C,-1.39
14,C75U C99U,-2.07
15,C76A C85A G143U,≤ -4.2
16,G84A,-0.547
17,G81U G84U,-2.19
18,C76U C87U,-0.242
19,G80A G88C A113U C116U U148A,≤ -4.2
20,G83A C108U C125G,-3.77
21,C79U A98G,-3.44
22,C75A C87A G88A,≤ -4.2
23,C75U C85U A106C A122C U135A U145A,-3.69
24,C76A A91C G128C G143A,≤ -4.2

row,Variant,polymerase ribozyme fitness (log ratio)
1,G80A G126A,-0.283
2,G80A C96G,-1.11
3,G81C G84U,-2.44
4,G83A A150C,-3.77
5,G83A A150U,0.356
6,C76G C96A U104G G112C,≤ -4.2
7,G83C C99A G133A,-4.12
8,G83A G141C,-1.87
9,G83C G94U,-2.72
10,G83U C123A,-0.709
11,G81C G94A,-0.416
12,G83U C95G G124U U148C,≤ -4.2
13,G84A A89U G136U,-2.91
14,G74C G83A C95U G136A,≤ -4.2
15,G83C U101C A119G A122U U135C U145A,-3.51
16,C76A U82G U146A,-0.356
17,G83U A120C G141A,-0.169
18,C76A C87U,-2.16
19,C75U G81A C85A C95G A98U,-3.71
20,C79U A91U C103G U135A,≤ -4.2
21,U78A C79U U82A G94U C96G G126A G141U,≤ -4.2
22,C75U A107G A142G,≤ -4.2
23,G83A C108U,-3.01
24,G83A G124C,-2.64

row,Variant,polymerase ribozyme fitness (log ratio)
1,C76A A107G U145C,≤ -4.2
2,U82G A91U A110U G117A,≤ -4.2
3,G83A C132G G133C,-2.67
4,G81U C85G A89C C93G,≤ -4.2
5,C76A A110U U139C G143U,≤ -4.2
6,G83C G136U,-2.46
7,G80A A91C A120G,≤ -4.2
8,G81C C87A C99G,≤ -4.2
9,G83A A106G A119C,-0.0979
10,G83A C125A,-0.344
11,G83U A110U,-4.17
12,G83C A147U,0.501
13,C75G U78C C99U C132G,≤ -4.2
14,C76G C93U,≤ -4.2
15,C76A A89U G141U,-2.94
16,U82C A89U,-0.15
17,C76A A137G,-1.07
18,C76A C85G C87U G141C A142C,≤ -4.2
19,C76U A121U,0.67
20,U77A G94A G140A,≤ -4.2
21,G80U C114U U144C,-3.95
22,G80A G84A,-0.264
23,G81A G94A G143U,-2.83
24,G74U C96A C118U,-3.97

row,Variant,polymerase ribozyme fitness (log ratio)
1,G83A C95A A113U,-3.12
2,C76U C118A,-2.21
3,C75G U78G A115G,≤ -4.2
4,C75U A142C,-1.32
5,U77C C79U C132A,≤ -4.2
6,C76U C87U C116A A122U U146G,-3.7
7,U82A C93G G126U,-2.84
8,C76G A106G G133A,≤ -4.2
9,G83C U104G,-2.14
10,C76A C87G C93U,≤ -4.2
11,U77A G86A C116G A121C,≤ -4.2
12,G83U A89G C95U C103G,≤ -4.2
13,G81U U82A G92A G152U,≤ -4.2
14,U82C U104G G117U,0.147
15,C79U G86A C96U C149G,≤ -4.2
16,U82G C87U,-0.516
17,U82G G143A,-0.245
18,G81A G86C A89U C125U C131U A137G,-4.06
19,G80A C99G,-1.02
20,C76U C99G,-0.789
21,G83U A122C G133C A147C,-2.76
22,U78C G84A G136U,-3.14
23,U78G C79U G94C A115C G143A,≤ -4.2
